Laboratory results as given in patent US12202907B2, “Nucleic acids encoding and methods of producing proteins comprising antibody chains” (Innate Pharma, priority 2018, dated 2025).

Legend:
[1] = Aggregation temperature (thermal shift stability assay); assay type: physicochemical; details: human IgG1 with L234A/L235E/G237A/A330S/P331S
Procedure: Antibodies mAb1-24 and prior art anti-CD39 antibody BY40, all produced as human IgG1 isotypes with L234A/L235E/G237A/A330S/P331S substitutions were tested for stability in the following reference formulation at a concentration of approximatively 7 mg/mL: pH 6.0; histidine buffer (10 mM); sucrose (200 mM); NaCl (50 mM); Polysorbate 80 (PS80) (0.2 g/L). The stability of the formulations was monitored in two storage conditions (at +5° C.±3° C. and at +40±3° C. For each study, 3 time points were performed: T0, T15D (15 days) and T1M (1 month). A freeze thaw (F/T) and a thermal shift stability assay (TSSA) were conducted for the format comparison. To perform F/T cycles, the samples were frozen at least 2 hours at −20° C. and thawed at least 1 hour at room temperature, the F/T cycle is repeated three times and samples are tested 24 h after the last Freeze/Thaw cycle. At each time point, the following tests were performed: • Particulate Matter (MFI) • Visual Inspection (Appearance) • Impurities (SE-HPLC) • Turbidity (400 nm) • Protein Concentration (280 nm) (performed with Nanodrop, Thermo Fisher Scientific Inc.)

cell-membrane bound CD39 = molecular target: T1, cell-membrane bound CD39 (Homo sapiens, UniProt P49961); experiment: Inhibition of the enzymatic activity of cellular CD39 (cells not specified); assay type: cell-based
T1 sequence (P49961 1-510): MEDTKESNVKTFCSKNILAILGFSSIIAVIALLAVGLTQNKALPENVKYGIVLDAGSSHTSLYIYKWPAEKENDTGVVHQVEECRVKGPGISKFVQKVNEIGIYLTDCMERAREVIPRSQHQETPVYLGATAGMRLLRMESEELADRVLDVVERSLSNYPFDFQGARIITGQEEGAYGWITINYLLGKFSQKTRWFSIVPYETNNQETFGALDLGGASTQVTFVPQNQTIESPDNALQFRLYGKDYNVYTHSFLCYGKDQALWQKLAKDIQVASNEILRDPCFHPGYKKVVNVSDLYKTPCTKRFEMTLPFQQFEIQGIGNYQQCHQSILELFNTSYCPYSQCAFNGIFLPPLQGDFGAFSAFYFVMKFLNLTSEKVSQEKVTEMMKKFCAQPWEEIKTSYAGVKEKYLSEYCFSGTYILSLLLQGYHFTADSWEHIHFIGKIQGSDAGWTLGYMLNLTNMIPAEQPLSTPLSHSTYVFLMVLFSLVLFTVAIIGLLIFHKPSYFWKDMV
Procedure: The inhibition of the CD39 enzymatic activity in CD39-expressing cells by antibodies was evaluated using Cell Titer GIo™ (Promega, reference G7571) that allows assessment of ATP hydrolysis through use of a reagent that generates a luminescent signal proportional to the amount of ATP present. The assay was thus designed to permit assessment of the inhibition of ATP hydrolyzed by CD39 in the cell culture supernatant. Briefly, 5×10^4 Ramos human lymphoma cells, 5×10^3 human CD39−, cynomolgus CD39—and mouse CD39− expressing CHO cells, were incubated 1 hour at 37° C. with anti-CD39 antibodies from 30 μg/ml to 5×10^−4 μg/ml. Cells were then incubated with 20 μM ATP for 1 additional hour at 37° C. Plates were centrifuged for 2 min at 400 g and 50 μl cell supernatant are transferred in a luminescence microplate (white wells). 50 μl CellTiter-Glo™ Reagent (CTG) was added to the supernatant and emitted light was quantified after a 5 min incubation in the dark using a Enspire™ luminometer. Anti-CD39 antibody efficacy was determined by comparing emitted light in presence of antibody with ATP alone (maximal light emission) and ATP together with cells (minimal light emission).

[2] = molecular target: T2, Human CD39-L2 (NTPDase6, ENTPD6) (Homo sapiens, UniProt O75354, K202E); experiment: ELISA titration on CD39-L2; assay type: binding
T2 sequence (O75354 1-484 K202E): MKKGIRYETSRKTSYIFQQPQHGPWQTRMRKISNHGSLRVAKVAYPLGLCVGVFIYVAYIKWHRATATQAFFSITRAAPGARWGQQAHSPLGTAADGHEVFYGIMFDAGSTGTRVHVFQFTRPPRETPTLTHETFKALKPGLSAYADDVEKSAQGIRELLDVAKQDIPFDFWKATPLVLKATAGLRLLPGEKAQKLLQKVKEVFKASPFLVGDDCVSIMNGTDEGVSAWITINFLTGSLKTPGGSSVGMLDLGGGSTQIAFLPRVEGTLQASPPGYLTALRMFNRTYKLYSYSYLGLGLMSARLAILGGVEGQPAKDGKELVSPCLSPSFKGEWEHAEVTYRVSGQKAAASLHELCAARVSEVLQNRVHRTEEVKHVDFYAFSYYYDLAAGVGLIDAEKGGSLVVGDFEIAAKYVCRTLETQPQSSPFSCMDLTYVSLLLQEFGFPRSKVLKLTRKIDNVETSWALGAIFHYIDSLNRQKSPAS
Procedure: Antibody I-394 was tested for binding to recombinant human CD39 isoforms (Rec-huCD39 isoforms) having amino acid sequences shown below were coated in 96-well plate in PBS 1X at 500 ng/ml or 1 μg/ml at 4° C. overnight. Wells were washed in TBS Tween® 20 (polysorbate 20), and further saturated 2H at RT in TBS Blocking buffer. Dose range concentration of primary antibody was incubated in TBS blocking buffer for 2 h at RT. Wells were washed in TBS Tween® 20 (polysorbate 20). […] Optical density was measured on Enspire™ at OD=450.

CD4 or CD8 T cells = experiment: T cell proliferation assay in the presence of added ATP; assay type: cell-based, human; details: for increase in potency of anti-CD73 antibodies: CD4 T cell proliferation
Procedure: Peripheral blood from healthy donors was obtained from EFS, and mononuclear cells were isolated on a Ficoll™ gradient. Lymphocytes were further enriched on a 52% Percoll™ gradient by collection of the cell pellets and stained with a Cell Trace dye (Thermofisher) following the TDS provided by the manufacturer. […] to 1×10^5 of stained cells were distributed in 96 round-bottom plates, incubated for 1 hour at 37° C. with anti-huCD73 antibodies (antibody 6E1 described in WO2016/131950) and/or anti-huCD39 Abs (I-394 described herein) and activated for 3 to 5 days by addition of anti-CD3/anti-CD28-coated beads (bead:cell=1:4; Life Technologies). Inhibition of T cell proliferation was achieved by addition of ATP (200 μM). T cell proliferation and ability of Abs to block immune suppressive effect of AMP were assessed by flow cytometry by quantifying the dye dilution in the proliferating T cell subset.
Percentage of proliferating T cells vs. anti-CD73 Ab concentration is plotted in graphs using GraphPad Prism™ software.

In the case of “I-394: anti-CD39 antibody, VH SEQ ID NO: 6, VL SEQ ID NO: 7, human IgG1 Fc with L234A/L235E/G237A/A330S/P331S”, the “Aggregation temperature (TAgg)” value [1] is reported as ~70 °C, the “potency and maximal inhibition of cellular CD39 compared to BY40” value (cell-membrane bound CD39; FIG. 2A) is reported as “greater potency and maximal inhibition of cellular CD39 compared to BY40” and the “inhibition of cell-membrane bound (cellular) CD39 ATPase activity” value (cell-membrane bound CD39; qualitative) is reported as “inhibit cell-membrane bound CD39”. The “binding to CD39-L2 in ELISA” value [2] was “not to any of the isoforms CD39-L1, -L2, -L3 or -L4”, the “potentiation of anti-CD73 antibodies in restoring CD4 or CD8 T cell proliferation” value (CD4 or CD8 T cells; ATP 200 μM, combination with anti-CD73 antibody 6E1) was “strongly potentiation the effect of anti-CD73 antibodies in restoring CD4 or CD8 T cell proliferation” and the “increase in potency of anti-CD73 antibodies” value (CD4 or CD8 T cells; anti-CD39 at 0.01 μg/ml) was “approximately 1 log”. For the same substance, the “increase in potency of anti-CD73 antibodies” value (CD4 or CD8 T cells; anti-CD39 at 0.1 μg/ml) was “approximately 4 log” and the “enhancement of CD4 or CD8 T cell proliferation, alone without anti-CD73” value (CD4 or CD8 T cells; concentrations of 0.1 μg/ml and 1 μg/ml, ATP 200 μM) was “remarkable enhancement of CD4 or CD8 T cell proliferation”.
